B1: RTN2 (parent)
chain: SERPLEDLRLRLDHLGWVARGTGS

Variants of: B1
Experiment: protein stability index of a GFP-peptide fusion (GPS, HEK-293T) (PSI 1-6); higher = more stable
Settings: c terminus: a fixed tail appended
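Note: lentivirally expressed fusions sorted by FACS into six bins by GFP to DsRed ratio, PSI derived from sequencing read proportions per bin multiplied by bin number.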

Protein stability index: each site, then its substitutions
W17: G 4.08; M 3.49; E 4.11; A 4.49; H 3.9; Q 4.42; Y 3.48; N 4.65
A19: L 1.97; T 3.5; C 2.58; E 2.96; P 3.78; K 3.34; W 2.3; D 3.31; N 3.34; H 2.9; G 3.39
R3: L 2.49; F 2.18; Y 1.86; M 2.99; Q 2; A 3.86; N 2.48; P 3.56; S 2.07; K 1.63; H 2.76; W 1.62; D 2.82; C 2.4; G 2.19
G16: V 1.55; E 3.03; Y 2.9; W 1.81; F 1.98; P 2.1; I 1.75; A 2.58; Q 3.01
E6: D 1.68; C 2.72; F 2.78; W 1.62; Q 2.49; I 1.71; N 2.24; G 2.35; V 2.63; H 2.34; S 1.93; A 2.27; P 2.15; T 1.29; M 2.29; K 1.53
D7: R 1.79; V 1.9; W 1.29; H 1.87; T 1.88; M 1.02; G 1.96; N 1.99; Q 1.43; A 1.94
H14: P 2.54; T 1.99; F 1.51; I 1.99; Q 1.73; W 1.92; M 2.47; L 1.93; R 2.36; E 2.61
L8: D 2.32; W 1.87; N 2.13; Q 1.47; H 2.16; I 2.44; A 2.73; E 3.52; Y 2.35; F 1.96; V 1.64; K 2.83
P4: E 2.61; K 2.38; R 1.59; F 3.68; V 1.26; Q 2.95; D 2.53; W 1.73; L 1.94
L5: T 2.38; N 1.48; V 4.48; D 3.44; W 1.97; F 3.45; G 2.33; S 2; Y 2.53; I 2.52; P 2.07; M 2.46
E2: S 2.43; I 2.12; L 1.42; H 2.19; A 1.99; F 2.9; Y 2.68; G 2.28; N 1.68
R11: A 1.92; N 2.58; Y 2.7; T 2.28; F 1.79; I 1.41; W 1.4; Q 2.9; C 1.52
L12: P 2.47; Y 3.11; T 3.51; K 3.13; I 2.02; A 2.97; R 2.16; W 2.38
L15: C 2.15; A 2.88; E 2.25; I 2.28; Q 2.1; F 2.8; M 1.89; Y 2.59; G 2.97; W 3.5; T 2.26
R20: Q 3.32; K 3.19; Y 2.34; F 2.36; C 1.86; P 3.31; L 1.85; H 2.77; N 3.55; E 4.02; S 4.23; M 3.12; T 3.14
G21: K 3.71; E 2.05; N 2.83; C 1.6; M 1.96
